Test results from the Immune Epitope Database (IEDB).

How the values were obtained:
Assay in all cases: IEDB peptide-MHC binding, purified MHC/competitive/radioactivity; filed as Kd, often an IC50 or EC50 that approximates it; ≥ and ≤ were set here for values at or beyond the usual limits of such assays
Details in all cases: source organism: Toxoplasma gondii
HLA-A*02:02 = molecular target: HLA-A*02:02
HLA-A*68:02 = molecular target: HLA-A*68:02
HLA-A*02:06 = molecular target: HLA-A*02:06
HLA-A*02:01 = molecular target: HLA-A*02:01
HLA-A*02:03 = molecular target: HLA-A*02:03

Sequence	Kd (HLA-A*02:02)	Kd (HLA-A*68:02)	Kd (HLA-A*02:06)	Kd (HLA-A*02:01)	Kd (HLA-A*02:03)
GLAAAVVAV	31 nM	263 nM	55 nM	9.6 nM	1.3 nM
FMIAFISCFA	56 nM	397 nM	112 nM	32 nM	56 nM
FLSLSLLVI	173 nM	9830 nM	≥ 10000 nM	736 nM	83 nM
FLLGLLVHV	37 nM	173 nM	9.9 nM	6.4 nM	4.6 nM
FLTDYIPGA	7.1 nM	2100 nM	1.2 nM	0.7 nM	7.8 nM
FVIFACNFV	11 nM	1.2 nM	5.6 nM	34 nM	6.5 nM
FMIVSISLV	1.8 nM	48 nM	6.2 nM	16 nM	≤ 1 nM
ITMGSLFFV	0.64 nM	1.1 nM	0.26 nM	0.16 nM	0.5 nM
